Tests used:
PSD-95 PDZ1 (aa 61–151) [1] = target: PSD-95 PDZ1 (aa 61–151) (UniProt P78352); assay: fluorescence polarisation; competition: 25 nM Cy5-labeled probe and a constant concentration of PDZ protein corresponding to the K d of the probe, twofold dilution series of unlabeled peptide (typically 1–512 µM); 10 mM HEPES pH 7.4, 150 mM NaCl, 1% BSA; room temperature; K i calculated from the IC50
PSD-95 PDZ3 (aa 309–401) [2] = target: PSD-95 PDZ3 (aa 309–401) (UniProt P78352); assay: as above
PSD-95 PDZ2 (aa 155–249) [3] = target: PSD-95 PDZ2 (aa 155–249) (UniProt P78352); assay: as above
PSD-95 PDZ1 (aa 61–151) [4] = target: PSD-95 PDZ1 (aa 61–151) (UniProt P78352); assay: SPR; PDZ domains immobilised by amine coupling on Sensor Chip CM5 (PDZ1, PDZ2) or CM4 (PDZ3); peptides injected 1 min, 1 min dissociation, 30 µl/min; […]; HBS-EP+ (10 mM HEPES pH 7.4, 150 mM NaCl, 3 mM EDTA, 0.05% Surfactant P-20)
PSD-95 PDZ3 (aa 309–401) [5] = target: PSD-95 PDZ3 (aa 309–401) (UniProt P78352); assay: as above
PSD-95 PDZ2 (aa 155–249) [6] = target: PSD-95 PDZ2 (aa 155–249) (UniProt P78352); assay: as above

Substance | Ki (PSD-95 PDZ1 (aa 61–151) [1]) [µM] | Ki (PSD-95 PDZ3 (aa 309–401) [2]) [µM] | Ki (PSD-95 PDZ2 (aa 155–249) [3]) [µM] | koff (PSD-95 PDZ1 (aa 61–151) [4]) [s⁻¹] | koff (PSD-95 PDZ3 (aa 309–401) [5]) [s⁻¹] | koff (PSD-95 PDZ2 (aa 155–249) [6]) [s⁻¹]
5-hydroxytryptamine receptor 2A (5-HTR2A) C-tail peptide, human | 160 | > 1000 | 46 | – | – | –
BAI1 receptor C-tail peptide, human | 63 | 790 | 29 | – | – | –
chemokine receptor CXCR2 C-tail peptide, human | 280 | 370 | 370 | – | – | –
mouse somatostatin receptor 1 (mSSTR1) C-tail peptide | 270 | > 1000 | 90 | – | – | –
mouse somatostatin receptor 4 (mSSTR4) C-tail peptide | > 1000 | > 1000 | 420 | – | – | –
neuropeptide Y receptor Y2 C-tail peptide, human | 270 | > 1000 | 230 | – | – | –

More lines, now with the values ahead:

Ki (PSD-95 PDZ1 (aa 61–151) [1]) [µM] | Ki (PSD-95 PDZ3 (aa 309–401) [2]) [µM] | Ki (PSD-95 PDZ2 (aa 155–249) [3]) [µM] | koff (PSD-95 PDZ1 (aa 61–151) [4]) [s⁻¹] | koff (PSD-95 PDZ3 (aa 309–401) [5]) [s⁻¹] | koff (PSD-95 PDZ2 (aa 155–249) [6]) [s⁻¹] | Substance
100 | 370 | 26 | > 1 | > 1 | > 1 | 5-hydroxytryptamine receptor 2C (5-HTR2C) C-tail peptide, human
50 | 200 | 28 | – | – | – | human somatostatin receptor 1 (hSSTR1) C-tail peptide
750 | 600 | 450 | – | – | – | human somatostatin receptor 4 (hSSTR4) C-tail peptide
620 | > 1000 | 230 | – | – | – | somatostatin receptor 2A (SSTR2A) C-tail peptide, human
610 | 280 | > 1000 | – | – | – | somatostatin receptor 3 (SSTR3) C-tail peptide, human
430 | 360 | 120 | – | – | – | β1-adrenergic receptor (β1AR) C-tail peptide, human

Reference: article PMC3653948, “PDZ Domain-Mediated Interactions of G Protein-Coupled Receptors with Postsynaptic Density Protein 95: Quantitative Characterization of Interactions” (PLoS ONE, 2013)
